According to the supplement of paper PMC6379048:

Assays:
Assay in all cases: Kd (EC50 corrected by depletion factor)
[1] = molecular target: T1, AQR (UniProt O60306)
T1 sequence: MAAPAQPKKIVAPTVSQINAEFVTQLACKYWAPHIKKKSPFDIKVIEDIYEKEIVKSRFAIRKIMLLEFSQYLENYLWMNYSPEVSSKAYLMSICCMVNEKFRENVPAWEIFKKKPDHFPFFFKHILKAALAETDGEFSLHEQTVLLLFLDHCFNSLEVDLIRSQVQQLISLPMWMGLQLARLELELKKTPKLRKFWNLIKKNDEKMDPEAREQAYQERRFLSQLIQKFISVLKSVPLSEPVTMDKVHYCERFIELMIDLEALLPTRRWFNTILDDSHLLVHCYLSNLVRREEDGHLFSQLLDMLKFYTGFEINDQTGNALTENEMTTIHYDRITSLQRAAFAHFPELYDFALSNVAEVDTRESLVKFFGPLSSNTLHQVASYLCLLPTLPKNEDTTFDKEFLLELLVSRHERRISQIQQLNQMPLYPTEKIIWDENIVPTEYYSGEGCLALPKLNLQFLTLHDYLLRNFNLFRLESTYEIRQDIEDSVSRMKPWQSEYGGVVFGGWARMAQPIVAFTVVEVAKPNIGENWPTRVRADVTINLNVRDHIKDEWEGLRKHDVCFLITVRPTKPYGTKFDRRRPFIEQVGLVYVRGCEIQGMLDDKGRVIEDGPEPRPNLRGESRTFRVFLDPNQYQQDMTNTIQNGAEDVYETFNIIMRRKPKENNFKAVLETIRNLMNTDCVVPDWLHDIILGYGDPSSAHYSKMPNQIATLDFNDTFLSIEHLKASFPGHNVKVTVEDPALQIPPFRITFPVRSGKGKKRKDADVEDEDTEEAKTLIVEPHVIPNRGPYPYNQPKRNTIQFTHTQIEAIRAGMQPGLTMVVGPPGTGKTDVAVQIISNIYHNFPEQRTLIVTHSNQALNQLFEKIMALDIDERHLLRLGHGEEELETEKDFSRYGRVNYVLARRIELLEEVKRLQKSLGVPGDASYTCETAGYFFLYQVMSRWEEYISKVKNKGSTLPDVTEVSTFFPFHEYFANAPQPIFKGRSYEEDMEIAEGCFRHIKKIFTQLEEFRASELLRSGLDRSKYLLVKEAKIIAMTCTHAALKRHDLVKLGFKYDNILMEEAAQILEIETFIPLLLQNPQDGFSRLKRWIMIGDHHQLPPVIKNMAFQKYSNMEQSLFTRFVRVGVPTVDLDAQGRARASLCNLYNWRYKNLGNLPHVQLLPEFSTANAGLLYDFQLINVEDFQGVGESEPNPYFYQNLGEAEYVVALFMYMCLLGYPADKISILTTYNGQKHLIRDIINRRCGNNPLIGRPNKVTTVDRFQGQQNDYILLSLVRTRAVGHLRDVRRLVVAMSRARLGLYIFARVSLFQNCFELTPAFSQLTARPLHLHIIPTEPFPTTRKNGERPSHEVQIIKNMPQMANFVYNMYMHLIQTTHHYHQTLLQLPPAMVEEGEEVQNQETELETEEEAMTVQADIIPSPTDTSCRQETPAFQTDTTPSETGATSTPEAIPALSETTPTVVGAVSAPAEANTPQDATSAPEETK
How it was run: (§1)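 Free RNA oligos (0 nM to 30 μM) competed for 1 h at 4°C in HEK293-FT lysate (2.5 mg protein/well) before a 30 min, 4°C pulldown with the same oligos on NHS-Sepharose beads. Bound proteins were quantified by label-free LC-MS/MS and normalised to the control. Kd was found by multiplying EC50, from a four-parameter log-logistic fit, by a protein-dependent depletion factor.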

[2] = molecular target: T2, CPSF3 (UniProt Q9UKF6)
T2 sequence: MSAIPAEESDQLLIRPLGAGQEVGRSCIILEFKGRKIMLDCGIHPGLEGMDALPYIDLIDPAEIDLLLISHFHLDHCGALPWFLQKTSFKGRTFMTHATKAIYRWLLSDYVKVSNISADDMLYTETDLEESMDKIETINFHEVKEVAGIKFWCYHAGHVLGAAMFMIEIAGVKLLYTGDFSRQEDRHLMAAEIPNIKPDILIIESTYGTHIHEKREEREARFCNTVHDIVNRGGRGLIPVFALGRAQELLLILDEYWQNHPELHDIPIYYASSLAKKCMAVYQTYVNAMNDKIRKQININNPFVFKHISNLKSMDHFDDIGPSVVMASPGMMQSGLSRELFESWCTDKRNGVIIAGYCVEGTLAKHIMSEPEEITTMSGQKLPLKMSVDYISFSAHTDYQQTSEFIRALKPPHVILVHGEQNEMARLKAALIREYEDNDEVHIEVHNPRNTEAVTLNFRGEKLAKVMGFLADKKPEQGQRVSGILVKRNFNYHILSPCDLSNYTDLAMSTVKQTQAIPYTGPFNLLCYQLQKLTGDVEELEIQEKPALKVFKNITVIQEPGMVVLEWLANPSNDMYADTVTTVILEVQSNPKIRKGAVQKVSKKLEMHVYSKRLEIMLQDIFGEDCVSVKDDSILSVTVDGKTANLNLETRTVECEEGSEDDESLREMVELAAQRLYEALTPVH
How it was run: as §1

[3] = molecular target: MSI1 (UniProt O43347)
Sequence of MSI1 (O43347 whole entry): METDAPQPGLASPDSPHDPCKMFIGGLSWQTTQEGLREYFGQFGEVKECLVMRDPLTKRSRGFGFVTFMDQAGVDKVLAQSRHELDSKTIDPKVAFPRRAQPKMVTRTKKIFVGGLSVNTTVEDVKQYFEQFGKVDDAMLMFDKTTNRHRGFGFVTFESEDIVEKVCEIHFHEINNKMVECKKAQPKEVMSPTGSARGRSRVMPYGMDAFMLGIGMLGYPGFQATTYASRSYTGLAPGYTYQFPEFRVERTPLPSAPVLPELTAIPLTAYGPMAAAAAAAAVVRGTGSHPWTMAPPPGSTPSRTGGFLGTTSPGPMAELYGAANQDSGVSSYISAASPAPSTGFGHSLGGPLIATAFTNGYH
How it was run: as §1

[4] = molecular target: SRSF9 (UniProt Q13242)
Sequence of SRSF9 (Q13242 whole entry): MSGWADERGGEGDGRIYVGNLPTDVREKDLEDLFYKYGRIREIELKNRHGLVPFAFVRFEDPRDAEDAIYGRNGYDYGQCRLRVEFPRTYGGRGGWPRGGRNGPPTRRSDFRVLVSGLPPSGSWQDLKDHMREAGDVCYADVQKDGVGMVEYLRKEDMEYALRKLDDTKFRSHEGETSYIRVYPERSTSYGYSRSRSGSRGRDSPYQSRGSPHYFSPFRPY
How it was run: as §1

[5] = molecular target: RPS20 (UniProt P60866)
How it was run: as §1

Sequence | Kd [1] [nM] | Kd [2] [nM] | Kd [3] [nM] | Kd [4] [nM] | Kd [5] [nM]
UAUUUAU | 320 | 270 | 373 | 5920 | –
AAUAAA | 213 | 5.97 | 3110 | – | 2300
CUGUCCU | – | – | – | 2230 | 59.8
